Measurements: patent US6358924B1, “GLP-1 formulations” (Eli Lilly and Company, priority 1997, dated 2002)

How the values were obtained:
[1] = Circular dichroism of Val^8-GLP-1 / GLP-1 secondary structure with bound DSS; assay type: physicochemical
From the text: A slightly larger form of Val^8-GLP-1 with DSS molecule(s) bound to it was observed on size-exclusion chromatography (SEC) and the altered secondary structure was noted by circular dichroism experiments (CD).

[2] = Solution clarity of m-cresol-preserved Val^8-GLP-1 solution with other surfactants, Example 4; assay type: physicochemical; settings: m-cresol about 3 mg/ml; for clarity of Val^8-GLP-1 solution with added surfactant: 10 μl surfactant in 500 μL of 1 mg/ml peptide, ambient temperature about 3 hours; for solution appearance: without any additives
Method: A formulation of the invention was prepared by dissolving Val^8-GLP-1(7-37)OH at 1 mg/ml in an aqueous solution containing 16 mg/ml glycerin and 10 mM sodium tribasic phosphate. The solution was adjusted to about pH 8.0 using 2N HCl.
(§1) The preservative m-cresol was prepared at a concentration of 100 mg/ml in absolute ethanol.
Various formulation excipients listed herein were added to 500 μL aliquots of the Val^8-GLP-1(7-37)OH solution in 3-ml glass vials. After stirring for about 45 minutes at ambient temperature, 15.8 μl of a 100 mg/ml m-cresol solution in absolute ethanol was added to give a m-cresol concentration of about 3 mg/ml.
Without any additives, the Val^8-GLP-1 solution becomes hazy at both ambient temperature and at 4° C.

[3] = Storage stability (solution clarity, HPLC purity) of m-cresol-preserved Val^8-GLP-1(7-37)OH formulations with DSS, Example 1; assay type: physicochemical; settings: for time solution remained clear: 4° C.; for HPLC purity after storage: 6 weeks at 4° C.
Method: A formulation of the invention was prepared by dissolving Val^8-GLP-1(7-37)OH at 1 mg/ml in an aqueous solution containing 16 mg/ml glycerin and 10 mM sodium tribasic phosphate. The solution was adjusted to about pH 8.1 using 1N HCl.
as §1
Sodium docusate (DSS) was prepared at a concentration of 20 mg/ml in water with gentle warming on a hot plate.
To each of 500 μL aliquots of the Val^8-GLP-1(7-37)OH solution in 3-ml glass vials were added 0, 3.3, 6.6 or 16.5 μL of the DSS solution followed by 15.8 μL of the preservative m-cresol solution. After gentle mixing of the components in the vials by hand swirling the pH of each clear solution was-adjusted to pH 7.8. Replicate samples were incubated at 4° C., ambient temperature, and 37° C. Within 4 hours at ambient temperature, the samples containing 0 or 3.3 μL of the DSS solution had become hazy due to peptide denaturation.
After incubation for 16 hours at 37° C., all four types of samples were clear. The solutions were then incubated at 4° C. Again, the solutions containing 0 or 3.3 μL of the DSS solutions became, and remained, hazy.
The solutions containing 6.6 μL or 16.5 μL of the DSS solution, which correspond to 2:1 and 10:1 molar ratios DSS to Val^8-GLP-1(7-37)OH, respectively, remained clear at 4° C. for at least 6 weeks.

[4] = Storage stability (solution clarity, HPLC purity) of preserved Val^8-GLP-1(7-37)OH formulation with DSS 2:1, Example 2; assay type: physicochemical; settings: for solution appearance: DSS 2:1, m-cresol about 3.15 mg/ml; for HPLC purity after storage: DSS 2:1, m-cresol
Method: A formulation of the invention was prepared by dissolving Val^8-GLP-1(7-37)OH at about 1.0 mg/ml in an aqueous solution containing 16 mg/ml glycerin and 10 mM sodium tribasic phosphate. The solution was adjusted to about pH 8.0 using 5N HCl. The solution was then filtered through 0.2μ and 0.02μ filters. The peptide concentration was quantified by ultraviolet (UV) analysis at 280 nm.
6.5 ml of the Val^8-GLP-1 solution was added to 1.62 mg of solid DSS, which had been dried from a 100 mg/ml solution in absolute ethanol, to give a 2:1 molar ratio of DSS to Val^8-GLP-1. After gently stirring 15 minutes at ambient temperature the solution was added to 20.5 mg of m-cresol, which had been dried from a 100 mg/ml solution in absolute ethanol, to give a m-cresol concentration of about 3.15 mg/ml. After stirring 15 minutes at ambient temperature, the solution was adjusted to about pH 7.7 and passed through a 0.2μ filter. Portions of this formulation were stored at 4° C. and at ambient temperature.
After 18 weeks, the formulations maintained at 4° C. and at ambient temperature were examined. Both solutions were clear.

[5] = test system: beagle dogs clamped at an elevated glycemic level (200 mg/dl); experiment: Hyperglycemic clamp, glucose infusion rate after subcutaneous injection; assay type: in vivo; settings: formulation containing DSS
Method: A portion of the formulation from Example 2 was injected subcutaneously into beagle dogs that were clamped at an elevated glycemic level (200 mg/dl). 3 nmoles/kg of Val^8-GLP-1 were injected into each animal. Glucose infusion rates needed to maintain hyperglycemia were measured for 2.5 hours after the injections and compared to injections of a vehicle control solution.

For “GLP-1(7-37) (HAEGTFTSDVSSYLEGEAAKEFIAWLVKGRG; listed as Homo sapiens)”, the “reversion to alpha-helix conformation” value ([1]; GLP-1-DSS mixture, 2-day dialysis, CD study) was “did not revert”.
In the case of Tween-40, the “clarity of Val^8-GLP-1 solution with added surfactant” value [2] is reported as “preserved solution clarity”.
In the case of Tween-80, the “clarity of Val^8-GLP-1 solution with added surfactant” value [2] is reported as “preserved solution clarity”.
With Val^8-GLP-1(7-37)OH the solution appearance ([3]; 0 μL DSS solution, incubated at 4° C. after 16 hours at 37° C.) was “hazy”, the solution appearance ([3]; 0 μL DSS solution, m-cresol, pH 7.8, within 4 hours at ambient temperature) was “hazy” and the solution appearance ([3]; 3.3 μL DSS solution, incubated at 4° C. after 16 hours at 37° C.) was “hazy”. For the same substance, the solution appearance ([3]; 3.3 μL DSS solution, m-cresol, pH 7.8, within 4 hours at ambient temperature) was “hazy”, the “time solution remained clear” value ([3]; 6.6 μL DSS solution (2:1 molar ratio DSS to peptide)) was “at least 6 weeks” and the “HPLC purity after storage” value ([3]; 6.6 μL DSS solution (2:1 molar ratio)) was 98.3%. The “time solution remained clear” value ([3]; 16.5 μL DSS solution (10:1 molar ratio DSS to peptide)) was “at least 6 weeks”, the “HPLC purity after storage” value ([3]; 16.5 μL DSS solution (10:1 molar ratio)) was 97.2% and the “solution stability on addition of DSS” value ([3]; DSS 2:1 molar vs. peptide, isotonic, pH 7.8, m-cresol) was “dramatically improved”. The solution appearance ([3]; all four sample types (0, 3.3, 6.6, 16.5 μL DSS solution), after incubation for 16 hours at 37° C.) was “clear”, the solution appearance ([4]; pH about 7.7, 18 weeks at 4° C.) was “clear” and the solution appearance ([4]; pH about 7.7, 18 weeks at ambient temperature) was “clear”. For the same substance, the “HPLC purity after storage” value ([4]; 18 weeks at 4° C.) was 98.3%, the “HPLC purity after storage” value ([4]; 18 weeks at ambient temperature) was 90.8% and the “insulinotropic-like activity versus Val^8-GLP-1 in phosphate buffer solution (PBS formulation)” value [5] was “comparable in potency”. For the same substance, the solution appearance ([2]; 4° C.) was “hazy”, the solution appearance ([2]; ambient temperature) was “hazy” and the “secondary structure upon binding of DSS” value ([1]; circular dichroism) was “converted from mostly alpha-helix to mostly a beta sheet”.
